The record followed here is paper PMC4072685, “Galactose Oxidase from Fusarium oxysporum - Expression in E. coli and P. pastoris and Biochemical Characterization” (PLoS ONE, 2014).

Usually Km stands for the substrate concentration at which the rate is half of its maximum. One may read the Vmax as the rate approached at saturating substrate. In general, kcat refers to the maximal rate divided by the concentration of active sites. Usually kcat/Km stands for the second-order rate constant that governs catalysis at low substrate concentration.

The target in data set [1] is T1, GalOx (galactose 6-oxidase from Fusarium oxysporum G12) (Fusarium oxysporum, UniProt V5NQ89).
T1 construct: gene gao
T1 sequence (V5NQ89 40-681 limits assumed): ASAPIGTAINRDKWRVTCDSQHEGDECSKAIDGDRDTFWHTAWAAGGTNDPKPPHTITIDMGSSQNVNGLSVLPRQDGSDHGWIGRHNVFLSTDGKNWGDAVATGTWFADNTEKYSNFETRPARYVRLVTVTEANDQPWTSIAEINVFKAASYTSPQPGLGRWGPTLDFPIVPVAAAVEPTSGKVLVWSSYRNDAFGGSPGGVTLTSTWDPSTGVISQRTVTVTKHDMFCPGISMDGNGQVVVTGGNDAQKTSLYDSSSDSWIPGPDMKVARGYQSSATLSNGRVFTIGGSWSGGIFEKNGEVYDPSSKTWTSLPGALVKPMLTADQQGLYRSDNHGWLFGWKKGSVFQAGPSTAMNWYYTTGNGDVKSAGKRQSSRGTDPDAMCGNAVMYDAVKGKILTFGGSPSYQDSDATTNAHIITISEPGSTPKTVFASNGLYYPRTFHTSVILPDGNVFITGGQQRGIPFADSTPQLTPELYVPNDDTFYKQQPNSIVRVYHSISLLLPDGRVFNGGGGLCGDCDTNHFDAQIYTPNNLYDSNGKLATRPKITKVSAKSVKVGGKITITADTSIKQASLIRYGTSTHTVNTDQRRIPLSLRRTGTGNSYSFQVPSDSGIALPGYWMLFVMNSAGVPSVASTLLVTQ
The data set can be described thus: ABTS/horseradish peroxidase coupled assay, […] nm, Michaelis-Menten fit. The following applies: apparent constant; co-substrate O2 (air); 20 mM potassium phosphate pH 7.0, 30°C; Cu2+-activated enzyme.

The test system of data set [2] is CO[C@H]1O[C@H](CO)[C@H](O)[C@H](O)[C@H]1O. In words: purified protein. To be noted: apparent constant, co-substrate O2 (air), 20 mM potassium phosphate pH 7.0, 30°C, Cu2+-activated enzyme.
The subject of data set [3] is OC[C@H]1O[C@H](OC[C@H]2O[C@H](O[C@]3(CO)O[C@H](CO)[C@@H](O)[C@@H]3O)[C@H](O)[C@@H](O)[C@@H]2O)[C@H](O)[C@@H](O)[C@H]1O. In words: purified protein. The following applies: apparent constant, co-substrate O2 (air), 20 mM potassium phosphate pH 7.0, 30°C, Cu2+-activated enzyme.
Data set [4] deals with CO[C@@H]1O[C@H](CO)[C@H](O)[C@H](O)[C@H]1O. The data set can be described thus: purified protein. The following applies: apparent constant, co-substrate O2 (air), 20 mM potassium phosphate pH 7.0, 30°C, Cu2+-activated enzyme.

With `OC[C@H]1OC(O)[C@H](O)[C@@H](O)[C@H]1O` (stereo partly drawn) [D-galactose], in data set [1], the Km came to 47 mM.
With “GalOx (galactose 6-oxidase from Fusarium oxysporum G12) (Fusarium oxysporum)”, in data set [2], the Km amounted to 41 mM, the maximum rate (Vmax) was 47 µmol/min/mg, the kcat turned out to be 57 s⁻¹ and the kcat/Km worked out at 1400 M⁻¹ s⁻¹. Besides, in data set [3], the Km is on record as 23 mM, the Vmax was determined as 23 µmol/min/mg, the kcat worked out at 28 s⁻¹ and the kcat/Km was 1200 M⁻¹ s⁻¹. Also, in data set [4], the Km worked out at 45 mM, the Vmax stood at 81 µmol/min/mg, the kcat was 99 s⁻¹ and the kcat/Km is 2200 M⁻¹ s⁻¹.
